We go through nine molecules from patent publication US20240018502A1.

Changes are numbered by the printed parent chain. In names and notes the source's numbering stands.

B1: Q38H/I41S/D60bT/F60eS/Y60gW/ins97aV/T98P/F99L/C122S/G151H/Q175L/Q192E (enzyme)
chain: VVGGTDADEGEWPWQVSLHALGHGHSCGASLISPNWLVSAAHCYIDTRGSRWSDPTQWTAFLGLHDQSQRSAPGVQERRLKRIISHPFFNDFVPLDYDIALLELEKPAEYSSMVRPISLPDASHVFPAGKAIWVTGWGHTQYGGTHALILQKGEIRVINQTTCENLLPQLITPRMMCVGFLSGGVDSCEGDSGGPLSSVEADGRIFQAGVVSWGDGCAQRNKPGVYTRLPLFRDWIKENTGV
B2: Q38H/I41S/D60bT/F60eS/Y60gW/D96Y/F97N/ins97aE/T98S/F99L/C122S/G151H/Q175L/Q192D (enzyme)
chain: B1 chain with D91Y, F92N, V93E, P94S, E189D
B3: Q38H/I41A/D60bV/F60eR/Y60gW/D96F/F97Y/ins97aN/T98G/F99M/C122S/G151N/Q175L/Q192G (enzyme)
chain: B1 chain with S26A, T47V, S50R, D91F, F92Y, V93N, P94G, L95M, H146N, E189G
B4: Q38H/I41S/D60bT/F60eS/Y60gW/D96K/F97D/ins97aA/T98P/F99L/C122S/G151N/Q175L/Q192D (enzyme)
chain: B1 chain with D91K, F92D, V93A, H146N, E189D
B5: Q38R/I41S/D60bY/F60eD/ins97aV/F97D/T98P/F99L/C122S/G151N/Q175M/Q192A (enzyme)
chain: B1 chain with H23R, T47Y, S50D, W52Y, F92D, H146N, L170M, E189A
B6: I41S/F99L/C122S/G151N/Q175M/Q192G/D217V (enzyme)
chain: VVGGTDADEGEWPWQVSLHALGQGHSCGASLISPNWLVSAAHCYIDDRGFRYSDPTQWTAFLGLHDQSQRSAPGVQERRLKRIISHPFFNDFTLDYDIALLELEKPAEYSSMVRPISLPDASHVFPAGKAIWVTGWGHTQYGGTNALILQKGEIRVINQTTCENLLPQMITPRMMCVGFLSGGVDSCGGDSGGPLSSVEADGRIFQAGVVSWGVGCAQRNKPGVYTRLPLFRDWIKENTGV
B7: Q38Y/I41S/D60bT/F60eR/Y60gW/D96M/T98G/F99L/C122S/G151N/Q175L/Q192D (enzyme)
chain: B6 chain with Q23Y, D47T, F50R, Y52W, D91M, T93G, M169L, G188D, V214D
B8: Q38H/I41A/D60bV/F60eR/Y60gW/F97D/F99L/C122S/G151H/Q175L/Q192D (enzyme)
chain: B6 chain with Q23H, S26A, D47V, F50R, Y52W, F92D, N145H, M169L, G188D, V214D
B9: H40R/I41H/Y60gH/F97D/F99L/C122S/Q175M/Q192G/D217I/K224L (enzyme)
chain: B6 chain with H25R, S26H, Y52H, F92D, N145G, V214I, K221L

The target in the experiment is human complement protein C3 (human) (UniProt P01024). Kind of experiment: cell-based or functional assay.
human complement protein C3 (human), sequence (P01024 23-667, chain 1 of 2): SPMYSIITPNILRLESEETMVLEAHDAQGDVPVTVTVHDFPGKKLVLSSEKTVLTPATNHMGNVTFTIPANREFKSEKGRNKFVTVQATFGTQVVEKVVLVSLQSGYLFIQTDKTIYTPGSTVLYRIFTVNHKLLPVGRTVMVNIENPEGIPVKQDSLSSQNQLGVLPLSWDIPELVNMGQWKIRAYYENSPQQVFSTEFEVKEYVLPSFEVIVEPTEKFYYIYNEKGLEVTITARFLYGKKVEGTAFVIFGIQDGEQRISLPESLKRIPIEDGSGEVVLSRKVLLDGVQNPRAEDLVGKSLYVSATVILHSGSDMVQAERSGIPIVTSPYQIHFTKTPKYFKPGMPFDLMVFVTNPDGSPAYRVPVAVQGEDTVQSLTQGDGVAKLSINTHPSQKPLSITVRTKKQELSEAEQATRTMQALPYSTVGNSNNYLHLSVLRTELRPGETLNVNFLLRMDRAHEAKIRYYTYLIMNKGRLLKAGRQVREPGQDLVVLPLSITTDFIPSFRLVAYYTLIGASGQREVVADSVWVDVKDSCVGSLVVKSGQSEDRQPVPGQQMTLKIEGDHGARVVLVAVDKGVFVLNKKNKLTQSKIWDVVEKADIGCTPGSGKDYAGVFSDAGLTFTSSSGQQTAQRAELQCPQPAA
human complement protein C3 (human), sequence (P01024 672-1663, chain 2 of 2): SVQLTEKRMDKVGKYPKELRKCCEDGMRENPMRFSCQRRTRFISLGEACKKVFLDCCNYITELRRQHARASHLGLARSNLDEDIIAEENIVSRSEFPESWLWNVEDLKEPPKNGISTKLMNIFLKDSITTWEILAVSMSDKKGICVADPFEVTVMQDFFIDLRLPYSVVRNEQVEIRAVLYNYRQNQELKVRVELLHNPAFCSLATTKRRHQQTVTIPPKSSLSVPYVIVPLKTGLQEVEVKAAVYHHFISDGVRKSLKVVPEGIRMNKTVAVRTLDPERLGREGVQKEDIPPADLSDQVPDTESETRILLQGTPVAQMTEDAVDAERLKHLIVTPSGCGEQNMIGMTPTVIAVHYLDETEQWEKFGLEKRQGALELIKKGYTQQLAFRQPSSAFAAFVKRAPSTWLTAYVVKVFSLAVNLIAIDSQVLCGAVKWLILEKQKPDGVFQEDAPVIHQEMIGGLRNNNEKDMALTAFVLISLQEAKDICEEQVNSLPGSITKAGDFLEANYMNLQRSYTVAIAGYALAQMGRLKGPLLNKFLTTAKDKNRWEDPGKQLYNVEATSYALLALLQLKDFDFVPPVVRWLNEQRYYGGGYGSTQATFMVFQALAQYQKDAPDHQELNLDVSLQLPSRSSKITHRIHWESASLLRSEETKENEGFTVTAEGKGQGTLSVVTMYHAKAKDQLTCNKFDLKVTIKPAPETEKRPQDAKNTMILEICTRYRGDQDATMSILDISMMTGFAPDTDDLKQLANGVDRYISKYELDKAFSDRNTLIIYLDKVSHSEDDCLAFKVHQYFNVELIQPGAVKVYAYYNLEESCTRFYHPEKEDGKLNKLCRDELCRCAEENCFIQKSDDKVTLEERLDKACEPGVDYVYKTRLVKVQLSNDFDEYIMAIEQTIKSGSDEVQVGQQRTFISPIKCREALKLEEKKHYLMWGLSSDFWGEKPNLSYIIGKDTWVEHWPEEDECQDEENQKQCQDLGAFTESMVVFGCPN
Turning to B1, the EC50 (nM), cleavage of purified hC3 in vitro stood at 3.19 nM.
Under B2 stands 4.53 nM.
Molecule B3 displayed an EC50 (nM), cleavage of purified hC3 in vitro of 3.76 nM.
Under B4 stands 5.92 nM; under B5, 3.22 nM; under B6, 3.19 nM.
As to B7, the EC50 (nM), cleavage of purified hC3 in vitro was 3.27 nM.
The molecule B8 returned an EC50 (nM), cleavage of purified hC3 in vitro of 3.72 nM.
Under B9 stands 3.72 nM.
